Among the data in patent publication US20240209083A1 are % of cells in the quadrant PE isotype positive, APC isotype negative, EC50 and fold weaker EC50 than TIM3.18 binding to human TIM-3 values, retold here.

The target in experiment [1] is human TIM3 (isoform 1), membrane bound (human) (UniProt Q8TDQ0). In words: flow cytometry, lung cancer TILs, CD4+ cells (upper panel), isotype staining.
The target is the same in experiment [2]. In words: flow cytometry, lung cancer TILs, CD8+ cells (lower panel), isotype staining.
The target of another experiment is mouse TIM3 (mouse) (UniProt Q8VIM0). In words: binding to activated mouse T cells (method not given).
Chain of mouse TIM3 (mouse) (Q8VIM0 20-281): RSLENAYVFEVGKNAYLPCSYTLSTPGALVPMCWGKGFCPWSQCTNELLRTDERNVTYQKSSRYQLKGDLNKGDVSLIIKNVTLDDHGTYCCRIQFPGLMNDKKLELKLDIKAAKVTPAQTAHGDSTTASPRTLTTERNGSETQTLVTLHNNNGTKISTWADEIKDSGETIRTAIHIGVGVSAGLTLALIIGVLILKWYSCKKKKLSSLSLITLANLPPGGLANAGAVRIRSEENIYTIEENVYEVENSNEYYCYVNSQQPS

Regarding “Isotype (Comp-PE-A :: Isotype) (antibody)”, the % of cells in the quadrant PE isotype positive, APC isotype negative is 2.94% in experiment [1] and 3.09% in experiment [2].
As to rat anti-mouse TIM-3 antibody RMT3-23, in the experiment with mouse TIM3 (mouse), the EC50 came out at 1.7 nM and the fold weaker EC50 than TIM3.18 binding to human TIM-3 came out at 17 fold.
